Assay [1] has as its target T1, GRP78 on the surface of HUVEC cells.
T1 construct: also called GRP78 on human umbilical vein endothelial cells
Description: confocal microscopy of HUVEC cells, 5 µM labelled peptide, 4 h, 37 °C (uptake).

In assay [2] the target is T2, GRP78 on the surface of glioma cell U87 (UniProt P11021 19-654, limits assumed).
T2 construct: whole, on cells; also called receptor protein on the cell surface; GRP78 protein
Description: confocal microscopy of U87 cells, 5 µM labelled peptide, 4 h, 37 °C (uptake).

For assay [3], the target named is T3, Recombinant human glucose-regulated protein GRP78 (human, UniProt P11021 19-654, limits assumed).
T3 construct: also called Bip
Description: SPR (Biacore T200), recombinant human GRP78 coupled to a CM5 chip, peptide injected at 0.3125-20 µM.

Results on two molecules are retold here after patent publication US11622990 (FUDAN UNIVERSITY, dated 2023).

Ends that are not written are not given here. Fluorescein‑5‑maleimide = reacted with thiol of C-terminal Cys

T3 sequence (P11021 19-654 limits assumed): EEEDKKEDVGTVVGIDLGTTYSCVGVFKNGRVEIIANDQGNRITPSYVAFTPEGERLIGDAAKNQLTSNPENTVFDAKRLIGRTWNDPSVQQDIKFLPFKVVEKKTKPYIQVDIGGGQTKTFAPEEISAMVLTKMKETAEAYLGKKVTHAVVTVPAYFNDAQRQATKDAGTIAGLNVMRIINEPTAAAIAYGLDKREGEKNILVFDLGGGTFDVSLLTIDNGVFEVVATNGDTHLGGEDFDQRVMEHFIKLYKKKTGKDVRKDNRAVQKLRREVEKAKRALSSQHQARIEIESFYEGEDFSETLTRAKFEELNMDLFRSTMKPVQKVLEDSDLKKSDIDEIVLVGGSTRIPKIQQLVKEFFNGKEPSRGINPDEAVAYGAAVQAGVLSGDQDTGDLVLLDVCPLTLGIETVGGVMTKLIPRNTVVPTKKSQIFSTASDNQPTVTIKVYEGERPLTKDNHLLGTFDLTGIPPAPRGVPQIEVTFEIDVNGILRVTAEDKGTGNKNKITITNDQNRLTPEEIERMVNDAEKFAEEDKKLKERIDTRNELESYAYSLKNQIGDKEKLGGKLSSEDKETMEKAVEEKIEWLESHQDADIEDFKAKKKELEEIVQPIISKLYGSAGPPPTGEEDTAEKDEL
T2 sequence (P11021 19-654 limits assumed): as above
T1 sequence (chain, as listed by the source limits assumed): as the sequence (P11021 19-654 limits assumed) above

In the case of SNTRVAPC(Fluorescein‑5‑maleimide) (also called Fluorescein-labeled ^LVAP) [LVAP-Fluorescein], the binding result in assay [1] and in assay [2] was “binds” in each case.
On to SNTRVAP [LVAP (L-configuration peptide SNTRVAP)], for which, in assay [3], the Kd amounted to 2.7 µM and the koff is 0.019 s⁻¹.
